Results reported in patent publication US20220348651A1 (Novartis, published 2022).
Residue numbers refer to the chain shown, from its start.

T1: ENTPD8 of H520 cells (UniProt Q5MY95 1-495, limits assumed)
T1 construct: whole, on cells
T1 sequence (looked up): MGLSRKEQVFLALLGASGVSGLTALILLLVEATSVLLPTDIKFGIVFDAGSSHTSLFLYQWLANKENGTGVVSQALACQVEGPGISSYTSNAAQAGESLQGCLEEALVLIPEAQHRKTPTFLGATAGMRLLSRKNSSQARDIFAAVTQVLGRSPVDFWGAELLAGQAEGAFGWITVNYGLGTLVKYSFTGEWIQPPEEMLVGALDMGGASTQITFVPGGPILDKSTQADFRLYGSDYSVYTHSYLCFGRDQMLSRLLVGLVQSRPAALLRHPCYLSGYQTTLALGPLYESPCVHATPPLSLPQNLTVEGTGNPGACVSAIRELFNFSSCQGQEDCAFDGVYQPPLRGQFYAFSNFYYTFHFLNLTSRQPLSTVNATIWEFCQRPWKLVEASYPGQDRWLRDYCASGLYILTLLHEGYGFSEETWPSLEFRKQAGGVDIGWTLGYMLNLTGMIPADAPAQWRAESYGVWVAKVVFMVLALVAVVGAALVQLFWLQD

T2: ENTPD3 of H520 cells (UniProt O75355 1-529, limits assumed)
T2 construct: whole, on cells
T2 sequence (looked up): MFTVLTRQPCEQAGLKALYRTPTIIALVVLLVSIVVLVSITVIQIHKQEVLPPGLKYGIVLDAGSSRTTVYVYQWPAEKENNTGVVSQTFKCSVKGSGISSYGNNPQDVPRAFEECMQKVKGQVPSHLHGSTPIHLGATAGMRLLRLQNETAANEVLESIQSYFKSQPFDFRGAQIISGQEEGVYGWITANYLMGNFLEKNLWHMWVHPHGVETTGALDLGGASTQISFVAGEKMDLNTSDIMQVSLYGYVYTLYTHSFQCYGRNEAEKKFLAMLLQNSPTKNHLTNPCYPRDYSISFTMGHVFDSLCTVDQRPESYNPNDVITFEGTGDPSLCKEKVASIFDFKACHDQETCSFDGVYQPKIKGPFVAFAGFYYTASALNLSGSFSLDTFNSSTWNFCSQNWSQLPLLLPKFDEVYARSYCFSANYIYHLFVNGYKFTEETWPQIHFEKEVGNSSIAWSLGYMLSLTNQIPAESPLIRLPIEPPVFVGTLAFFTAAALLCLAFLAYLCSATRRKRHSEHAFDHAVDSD

T3: human ENTPD2 expressed on cells (human, UniProt Q9Y5L3 1-495)
T3 construct: full-length human ENTPD2 on engineered cells; also called NIH3T3 humanENTPD2; NIH/3T3-hENTPD2
T3 sequence: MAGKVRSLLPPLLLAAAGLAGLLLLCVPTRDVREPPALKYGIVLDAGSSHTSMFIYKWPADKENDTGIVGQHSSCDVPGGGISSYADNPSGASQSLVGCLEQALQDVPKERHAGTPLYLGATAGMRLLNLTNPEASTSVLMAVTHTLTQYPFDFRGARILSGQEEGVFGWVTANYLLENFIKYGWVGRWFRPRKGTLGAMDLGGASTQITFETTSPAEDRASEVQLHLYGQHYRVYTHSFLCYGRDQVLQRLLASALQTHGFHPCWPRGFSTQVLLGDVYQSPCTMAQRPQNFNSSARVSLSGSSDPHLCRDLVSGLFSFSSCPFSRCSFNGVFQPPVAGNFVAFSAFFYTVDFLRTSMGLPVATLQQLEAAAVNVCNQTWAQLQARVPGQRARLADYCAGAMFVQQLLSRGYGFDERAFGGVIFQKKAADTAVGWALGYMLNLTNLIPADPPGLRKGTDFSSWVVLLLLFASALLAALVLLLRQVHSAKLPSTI

T4: recombinant monomeric mouse ENTPD2 extracellular domain (residues 29-462) with His6 tag (mouse, UniProt O55026 29-462)
T4 sequence: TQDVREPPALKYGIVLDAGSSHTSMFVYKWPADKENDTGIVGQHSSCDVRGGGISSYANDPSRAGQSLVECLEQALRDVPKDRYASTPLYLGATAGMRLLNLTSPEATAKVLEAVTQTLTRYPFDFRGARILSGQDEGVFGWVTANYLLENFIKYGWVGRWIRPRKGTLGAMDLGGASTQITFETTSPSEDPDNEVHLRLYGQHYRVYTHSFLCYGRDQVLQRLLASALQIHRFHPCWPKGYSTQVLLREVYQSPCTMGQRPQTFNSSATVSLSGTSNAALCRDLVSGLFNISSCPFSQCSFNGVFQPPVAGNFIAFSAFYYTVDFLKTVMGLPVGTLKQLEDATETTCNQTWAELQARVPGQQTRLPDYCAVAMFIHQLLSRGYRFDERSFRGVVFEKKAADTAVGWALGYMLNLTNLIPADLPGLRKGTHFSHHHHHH

B1: ANTI-HUMAN ENTPD2 MAB1 (antibody, human IgG1, kappa)
heavy: not shown
light: DIQLTQSPSSLSASVGDRVTITCSASSSVSYIHWFQQKPGKAPKLLIYSTSNLASGVPSRFSGSGSGTFFTLTISSLQPEDFATYFCHQWSSYPWTFGQGTKVEIKRTVAAPSVFIFPPSDEQLKSGTASVVCLLNNFYPREAKVQWKVDNALQSGNSQESVTEQDSKDSTYSLSSTLTLSKADYEKHKVYACEVTHQGLSSPVTKSFNRGEC
notes: humanized from mAb17; human IgG1, kappa; also called anti-ENTPD2 mAb1
B2: ANTI-HUMAN ENTPD2 MAB8 (antibody, human IgG1, lambda, V domains shown)
VH: QVQLQQSGPGLVKPSQTLSLTCAISGDSVSSSSAAWNWIRQSPSRGLEWLGRIYYRSKWYNDYAVSVKSRITINPDTSKNQFSLQLNSVTPEDTAVYYCARGSYVTSSYEGFDYWGQGTLVTVSS
VL: SYELTQPLSVSVALGQTARITCSGDNLPEKYAYWYQQKPGQAPVLVIYDDNKRPSGIPERFSGSNSGNTATLTISRAQAGDEADYYCQSYGKWGWTWVFGGGTKLTVLG
notes: also called Anti-ENTPD2 mAb8
B3: ANTI-HUMAN ENTPD2 MAB2 (antibody, human IgG1, kappa)
heavy: not shown
light: EIVLTQSPATLSASPGERITLSCSASSSVSYIHWYQQKPGQAPRLLIYSTSNLASGIPARFSGSGSGTFYTLTISSVEPEDAAVYYCHQWSSYPWTFGGGTKLEIKRTVAAPSVFIFPPSDEQLKSGTASVVCLLNNFYPREAKVQWKVDNALQSGNSQESVTEQDSKDSTYSLSSTLTLSKADYEKHKVYACEVTHQGLSSPVTKSFNRGEC
notes: humanized from mAb17; human IgG1, kappa; also called Anti-ENTPD2 mAb2
B4: ANTI-HUMAN ENTPD2 MAB7 (antibody, human IgG1, kappa)
heavy: not shown
light: B3 light with R18E
notes: humanized from mAb17; human IgG1, kappa; also called Anti-ENTPD2 mAb7
B5: ANTI-HUMAN ENTPD2 MAB3 (antibody, human IgG1, kappa, V domains shown)
VH: QVQLVQSGAEVVKPGASVKISCKASGYTFTDYNMDWVKQAPGQRLEWIGDINPKYDISTYNQQFKGKATITVDTSASTAYMELSSLRSEDTAVYYCARRGFFLYYGINYYYFDVWGQGTLVTVSS
VL: EIVLTQSPATLSASPGERITLSCSASSSVSYIHWYQQKPGQAPRLLIYSTSNLASGIPARFSGSGSGTFYTLTISSVEPEDAAVYYCHQWSSYPWTFGGGTKLEIKR
notes: humanized from mAb17; human IgG1, kappa; also called Anti-ENTPD2 mAb3
B6: ANTI-HUMAN ENTPD2 MAB9 (antibody, human IgG1, lambda, V domains shown)
VH: QVQLVQSGAEVKKPGSSVKVSCKASGGTFDSYAVSWVRQAPGQGLEWMGRIVPWLGHTQYAQKFQGRVTITADESTSTAYMELSSLRSEDTAVYYCARESPGYRYSFDVWDQGTLVTVSS
VL: SYELTQPLSVSVALGQTARITCSGDAIGEKYVYWYQQKPGQAPVLVIYDDNNRPSGIPERFSGSNSGNTATLTISRAQAGDEADYYCASYDLQQARWVFGGGTKLTVLG
notes: also called Anti-ENTPD2 mAb9
B7: ANTI-HUMAN ENTPD2 MAB10 (antibody, human IgG1, lambda, V domains shown)
VH: B6 VH with H57F, Q59R
VL: B6 VL
notes: also called Anti-ENTPD2 mAb10
B8: ANTI-HUMAN ENTPD2 MAB4 (antibody, human IgG1, kappa, V domains shown)
VH: QIQLQESGPGLVKPSQTLSLTCTVSGYSITSGYYWNWIRQHPGKGLEWIGYISYDADNNYNPSLKNRVTISRDTSKNQFSLKLSSVTAADTAVYYCAGGYYRYGLGSYRGSYYYVMDYWGQGTTVTVSS
VL: ETVLTQSPATLSVSPGERATISCKASQSVDYEGHSYMNWYQQKPGQAPRLLIYAASNLESGIPARFSGSGSGTDFTLTISSVEPEDAATYYCQQSNEDPPTFGGGTKLEIKR
notes: humanized and optimized from mAb16; human IgG1, kappa; also called Anti-ENTPD2 mAb4
B9: ANTI-HUMAN ENTPD2 MAB6 (antibody, human IgG1, kappa, V domains shown)
VH: B8 VH with I2V, I49M, V68I, R109S
VL: DTQMTQSPSSLSVSVGDRATITCKASQSVDYEGHSYMNWYQQKPGKAPKLLIYAASNLESGVPSRFSGSGSGTDFTLTISSVQPEDFATYYCQQSNEDPPTFGGGTKLEIKR
notes: humanized and optimized from mAb16; human IgG1, kappa; also called Anti-ENTPD2 mAb6
B10: ANTI-HUMAN ENTPD2 MAB5 (antibody, human IgG1, kappa, V domains shown)
VH: B8 VH
VL: B8 VL with E32D, H34N
notes: humanized and optimized from mAb16; human IgG1, kappa; also called Anti-ENTPD2 mAb5

Molecular target: T5, recombinant human ENTPD2 extracellular domain (residues 29-462) with C-terminal Avi-His6 tag (human, UniProt Q9Y5L3 29-462, biotinylated on the AviTag in the epitope binning assay)
T5 construct: also called human ENTPD2 ECD; Human ENTPD2-Avi-His6 protein
Assay: SPR Biacore, mAb captured, ECD analyte, 25C
Method: Biacore Screening: Affinity was measured by determining the kinetic rate constants using surface plasmon resonance (SPR) on a Biacore T200 or T100 with the T200 sensitivity upgrade instrument (Biacore, GE Healthcare). Antibodies were captured on CM5 sensor chips (Biacore, GE Healthcare) prepared with a mouse anti-human IgG Fc antibody (ThermoFisher catalogue #05-4200) amine coupled to the surface. […] ENTPD2 analytes were allowed to associate for 180 s and dissociate for up to 1800 s depending on the off-rate of the antibody at a flow rate of 30 μL/min. The running buffer was PBS pH 7.2 (prepared from a Corning 10X stock, cat#46-013-CM)+0.05% Tween 20. […] The raw data were analyzed using Biacore T200 Evaluation Software version 1.0 and fit to a 1:1 binding model, with all parameters set to fit globally except for RI, which was set to fit locally.

Kd [nM]	koff [s⁻¹]	kon [M⁻¹ s⁻¹]	Binder
1.7	0.00019	110000	B1
3.3	0.00094	290000	B2
1.7	0.00018	110000	B3
0.9	0.00019	210000	B4
1.3	0.00016	130000	B5
0.9	0.0003	380000	B6
0.8	0.00024	340000	B7
0.7	0.00022	300000	B8
0.7	0.00026	350000	B9
0.6	0.00016	270000	B10

Molecular target: T1, ENTPD8 of H520 cells
Assay: flow cytometry, H520 cells

binding result	Binder
no binding (tested: 50 nM)	B1
no binding (tested: 50 nM)	B2
no binding (tested: 50 nM)	B3
no binding (tested: 50 nM)	B4
no binding (tested: 50 nM)	B5
no binding (tested: 50 nM)	B6
no binding (tested: 50 nM)	B7
no binding (tested: 50 nM)	B8
no binding (tested: 50 nM)	B9
no binding (tested: 50 nM)	B10

Molecular target: T2, ENTPD3 of H520 cells
Assay: flow cytometry, H520 cells

binding result	Binder
no binding (tested: 50 nM)	B1
no binding (tested: 50 nM)	B2
no binding (tested: 50 nM)	B3
no binding (tested: 50 nM)	B4
no binding (tested: 50 nM)	B5
no binding (tested: 50 nM)	B6
no binding (tested: 50 nM)	B7
no binding (tested: 50 nM)	B8
no binding (tested: 50 nM)	B9
no binding (tested: 50 nM)	B10

Molecular target: T3, human ENTPD2 expressed on cells
Assay: flow cytometry, NIH3T3 human ENTPD2 cells

EC50 [nM]	Binder
1.5	B1
0.6	B2
2.1	B3
0.5	B4
2.8	B5
0.6	B6
0.8	B7
0.9	B8
0.9	B9
0.9	B10

Molecular target: T4, recombinant monomeric mouse ENTPD2 …
Assay: SPR Biacore

binding result	Kd [nM]	Binder
no binding	–	B1
binds	–	B2
no binding	–	B3
no binding	–	B4
no binding	–	B5
–	750	B6
binds	–	B7
no binding	–	B8
no binding	–	B9
no binding	–	B10
